The text below walks through data of PMC4106346, “The Oligomeric States of the Purified Sigma-1 Receptor Are Stabilized by Ligands” (The Journal of Biological Chemistry, 2014).

The target of the series is Q60492. Description: TOXCAT (ToxR-driven CAT reporter of transmembrane self-association); TM domain between MBP and ToxR in the membrane of E. coli MM39; CAT activity of lysates as percent of glycophorin A. The conditions noted are these: other: TOXCAT (ToxR-driven CAT reporter of transmembrane self-association).

As to WVFVNAGGWMLAMCLLHASL [TM2 domain of S1R with G91L in the TOXCAT construct], the “TOXCAT response relative to nonmutated TM2” value is on record as “attenuated to only 60% of that observed from the nonmutated TM2”.
